In patent US20200055941A1 (MILTENYI BIOTEC, published 2020):
Blank lines part the entries; values can stand above or below the binder they belong to.

Key:
[1] = target: T1, Recombinant Human Fc gamma RIIb/CD32b (human, UniProt P31994 46-217); assay: ELISA, plates coated with recombinant CD32b/c, anti-human kappa-HRP
T1 construct: also called FcγRIIb; CD32b/c
T1 sequence (looked up): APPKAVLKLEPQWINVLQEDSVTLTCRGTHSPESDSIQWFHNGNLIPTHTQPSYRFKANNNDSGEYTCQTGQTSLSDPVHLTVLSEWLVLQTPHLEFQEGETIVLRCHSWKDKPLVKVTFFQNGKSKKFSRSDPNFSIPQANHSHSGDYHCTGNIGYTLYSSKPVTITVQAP
Procedure: To examine more precisely the CD32b/c binding of MB101, the wt IgG₄ and the two single mutation variants, linear dilutions of the mAbs were incubated with ELISA plates previously coated with recombinant CD32b/c. FcR-bound anti-BDCA2 Ab were probed with anti-human kappa-HRP and TMB-substrate.
(§1) ELISA plates were coated with Fc gamma receptors I, IIa, IIb, IIIa and IIIb with 5 μg/mL each in coating buffer overnight at 4° C. Coated plates were washed 3-fold with 1×PBS 0.05% Tween 20 and blocked with 5% BSA in 1×PBS. Antibodies were applied to ELISA plates with 50 μL/well at serial 2-fold dilution of antibody solution and incubated at room temperature for 1 h. As blank controls, respective antibody concentrations were also applied to wells lacking coated Fc gamma receptors, in order to subtract unspecific binding from resulting signals. After washing (see above), the detection antibody anti-human kappa-HRP (FE 110316.07) 1:4000 in 1×PBS was applied with 50 μL/well and incubated again at RT for 1 h. After additional washing (see above), for assay development 50 μL/well TMB (CH111027.37) were applied and stopped after approx. 5 minutes with 50 μL/well 10% H₂SO₄. The developed plate was then analyzed via ELISA reader at 450 nm wavelength.

[2] = target: T1, Recombinant Human Fc gamma RIIb/CD32b; assay: ELISA, plate-bound recombinant receptor, anti-human kappa-HRP
Procedure: as §1

[3] = target: T2, Recombinant Human Fc gamma RIIIb/CD16b (human, UniProt O75015 17-200); assay: as above
T2 construct: also called Fcγ RIIIb/c; CD16b/c
T2 sequence (O75015 17-200 limits assumed): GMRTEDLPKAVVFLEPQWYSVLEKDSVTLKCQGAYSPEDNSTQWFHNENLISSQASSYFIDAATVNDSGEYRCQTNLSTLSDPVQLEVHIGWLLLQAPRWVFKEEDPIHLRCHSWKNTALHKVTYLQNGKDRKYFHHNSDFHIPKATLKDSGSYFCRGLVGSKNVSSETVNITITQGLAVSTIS
Procedure: as §1

binding result [1]: binds
B1: aCD303-hIgG4-WT (antibody)
heavy: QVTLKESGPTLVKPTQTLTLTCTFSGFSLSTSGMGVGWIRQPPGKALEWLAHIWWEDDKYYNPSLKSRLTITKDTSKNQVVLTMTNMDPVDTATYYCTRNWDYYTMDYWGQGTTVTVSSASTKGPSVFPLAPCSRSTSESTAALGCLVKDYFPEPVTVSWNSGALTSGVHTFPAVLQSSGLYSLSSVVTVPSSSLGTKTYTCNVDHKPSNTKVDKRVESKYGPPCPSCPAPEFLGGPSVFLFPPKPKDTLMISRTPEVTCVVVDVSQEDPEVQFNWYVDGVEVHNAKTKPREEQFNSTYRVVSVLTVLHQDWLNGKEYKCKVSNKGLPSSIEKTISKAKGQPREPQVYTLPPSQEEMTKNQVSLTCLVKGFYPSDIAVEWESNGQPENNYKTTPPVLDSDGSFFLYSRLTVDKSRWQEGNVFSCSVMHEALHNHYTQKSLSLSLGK
light: DIQMTQSPSSVSASVGDRVTITCRASQEISGYLSWYQQKPGKAIKRLIYAASTLDSGVPSRFSGSRSGTDFTLTISSLQSEDFATYYCLQYASYPPTFGGGTKLEIKGTVAAPSVFIFPPSDEQLKSGTASVVCLLNNFYPREAKVQWKVDNALQSGNSQESVTEQDSKDSTYSLSSTLTLSKADYEKHKVYACEVTHQGLSSPVTKSFNRGEC
notes: MB101 (anti-CD303) expressed as a wild type IgG4; also called wt IgG4; wild type IgG4 antibody (aCD303-hIgG4)

binding result [1]: binds
B2: Pool 6 (aCD303-hIgG4-R409K) (antibody)
heavy: QVTLKESGPTLVKPTQTLTLTCTFSGFSLSTSGMGVGWIRQPPGKALEWLAHIWWEDDKYYNPSLKSRLTITKDTSKNQVVLTMTNMDPVDTATYYCTRNWDYYTMDYWGQGTTVTVSSASTKGPSVFPLAPCSRSTSESTAALGCLVKDYFPEPVTVSWNSGALTSGVHTFPAVLQSSGLYSLSSVVTVPSSSLGTKTYTCNVDHKPSNTKVDKRVESKYGPPCPSCPAPEFLGGPSVFLFPPKPKDTLMISRTPEVTCVVVDVSQEDPEVQFNWYVDGVEVHNAKTKPREEQFNSTYRVVSVLTVLHQDWLNGKEYKCKVSNKGLPSSIEKTISKAKGQPREPQVYTLPPSQEEMTKNQVSLTCLVKGFYPSDIAVEWESNGQPENNYKTTPPVLDSDGSFFLYSKLTVDKSRWQEGNVFSCSVMHEALHNHYTQKSLSLSLGK
light: B1 light
notes: Single mutation variant of MB101; also called anti-CD303 IgG4 R409K; IgG4 variant R409K

binding result [2]: binds
binding result [3]: no binding
B3: MB101 (aCD303-hIgG4-S241P/R409K) (antibody)
heavy: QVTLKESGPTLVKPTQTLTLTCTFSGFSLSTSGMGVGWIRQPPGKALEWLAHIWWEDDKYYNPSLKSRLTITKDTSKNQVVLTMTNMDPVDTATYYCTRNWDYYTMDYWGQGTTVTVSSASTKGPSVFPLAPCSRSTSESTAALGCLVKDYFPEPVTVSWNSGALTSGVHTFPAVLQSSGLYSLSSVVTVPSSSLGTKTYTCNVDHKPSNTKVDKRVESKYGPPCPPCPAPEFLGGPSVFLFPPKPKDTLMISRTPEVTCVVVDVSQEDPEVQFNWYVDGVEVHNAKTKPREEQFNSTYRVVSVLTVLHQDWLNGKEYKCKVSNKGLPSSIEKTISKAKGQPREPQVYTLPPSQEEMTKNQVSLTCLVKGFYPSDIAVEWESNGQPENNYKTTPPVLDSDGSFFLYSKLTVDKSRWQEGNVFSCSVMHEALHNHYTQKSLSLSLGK
light: B1 light
notes: Humanized IgG4 against BDCA-2 (CD303), made in CHO DG44 cells; also called MB101.10; anti-CD303 IgG4 S241P/R409K
